Experimental data reported in article PMC7906951.
Substitutions are numbered along the chain they refer to.

T1: Card1 (Tresu_2185, Cad1) (Treponema succinifaciens, UniProt F2NWD3 1-372)
T1 sequence: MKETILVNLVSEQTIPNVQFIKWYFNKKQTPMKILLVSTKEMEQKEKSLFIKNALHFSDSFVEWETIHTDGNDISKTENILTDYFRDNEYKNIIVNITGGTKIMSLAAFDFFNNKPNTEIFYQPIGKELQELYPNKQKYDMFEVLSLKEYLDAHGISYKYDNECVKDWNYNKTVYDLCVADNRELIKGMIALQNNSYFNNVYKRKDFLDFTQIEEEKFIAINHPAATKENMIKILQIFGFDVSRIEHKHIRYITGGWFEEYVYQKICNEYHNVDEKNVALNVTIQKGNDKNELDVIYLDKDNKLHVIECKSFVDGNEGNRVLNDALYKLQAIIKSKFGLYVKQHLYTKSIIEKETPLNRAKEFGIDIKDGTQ

T2: Card1 D294N (Treponema succinifaciens, UniProt F2NWD3 1-372, D294N)
T2 sequence: T1 sequence with D294N


Columns and labels:
[1] = biological target: T1, Card1 (Tresu_2185, Cad1); experiment: ITC
[2] = biological target: T2, Card1 D294N; experiment: crystal structure

Binder | Kd [1] [nM] | binding result [2]
AAAAAA (ssRNA, cyclic 3'-5' oligoadenylate; no free ends) [cA6 (cyclic hexaadenylate)] | 78 | –
AAAA (ssRNA, cyclic 3'-5' oligoadenylate; no free ends) [cA4 (cyclic tetraadenylate)] | 15 | binds
